Measured values taken from article PMC7718890, “High-throughput screening to discover inhibitors of the CarD·RNA polymerase protein–protein interaction in Mycobacterium tuberculosis” (Scientific Reports, 2020).

Target: Mycobacterium tuberculosis RNA polymerase, wild type (Mycobacterium tuberculosis) (UniProt P9WGY9)
Assay: FP

CarD T24C labelled with BODIPY-FL
Kd: 56 nM
